Results on four molecules are retold here after publication PMC3896448 (2014).

Residue numbers refer to the chain shown, from its start.

Assay [1] has as its target T1, hen egg-white lysozyme (hen (egg-white), UniProt P00698 19-147).
Assay [2] concerns the target T1, hen egg-white lysozyme. In words: SPR.

T1 sequence (P00698 19-147): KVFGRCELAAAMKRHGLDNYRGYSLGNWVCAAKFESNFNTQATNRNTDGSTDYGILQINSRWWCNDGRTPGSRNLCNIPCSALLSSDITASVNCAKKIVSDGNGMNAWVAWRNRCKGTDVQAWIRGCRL

B1: OBody AM1L10 (designed binder)
chain: AMGSVYPKKTHWTAEITPNLHGTEVVVAGWVASLGDYGRVKIVKVSDREGGAAVSVYLEYGKTPDHLFKVFAELSREDVVVIKGIVEASKAAADMHNGVEIFPSEIWILNKAK
In turn, B1 yielded a Kd in assay [1] of 4600 nM.

B2: OBody AM3L15 (designed binder)
chain: VSPKKTHWTAEITPNLHGSEVVVAGWVAHLGDYGRVKIVKVSDREGGAAVPVYLERGKTPDHLFKVFAELSREDVVVIKGIVEAGWPVALDTGVEIFPSEIWILNKAKPLPID
Molecule B2 registered a koff in assay [2] of 0.0256 s⁻¹.

B3: OBody AM1L200 (designed binder)
chain: B2 chain with S2Y, S19T, K37M, G85S, W86K, P87Q, V88Y, A89G, L90S
Turning to B3, the affinity in assay [1], expressed as Kd, was 1200 nM.

B4: OBody AM3L09 (designed binder)
chain: B2 chain with G85T, W86T, P87V, V88T, A89R, L90W
As for B4, in assay [2], the koff was 0.00249 s⁻¹.
